± gives the uncertainty stated by the source.

The nature of this data set: amyloid nucleation score (Sup35N fusion, yeast selection) (log enrichment); library NNK2; higher = more nucleation; inactive = no reads after selection. An outline of the steps:
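Libraries of peptides of 20 random codons fused to Sup35N were expressed in psi-negative yeast and induced 24 hours with 100 μM copper sulfate. Selection was 7 days at 30°C on medium lacking adenine and uracil, and plasmid inserts were Illumina-sequenced before and after selection. Nucleation score is the DiMSum log enrichment of output over input reads, centred on the mode score of non-aggregating sequences, and sequences with under 100 input reads were left out.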
YYVAIVSLWSGVKYVMVKFA: the amyloid nucleation score is -1.07 ± 0.78.

KAVCGCLLLGFVNFLYPVEV: the amyloid nucleation score is -0.495 ± 0.21.

The substance CARSWLRVLGTSPEKMKG came in with an amyloid nucleation score of 0.627 ± 0.74.

Consider EDFRGLIKL, for which the amyloid nucleation score entry was “inactive”.

HSMSKDLGWFHPNVNRFGFF: the amyloid nucleation score entry is “inactive”.

FFQQRCYVVFAIMTSSGADD returned an amyloid nucleation score of 0.864 ± 0.12.

VMNHSQL yielded an amyloid nucleation score of 3.92 ± 0.051.

For the substance TGENI, the amyloid nucleation score entry is “inactive”.

Regarding VLSVISLFGHILVMFLERKV, the amyloid nucleation score was -0.13 ± 0.76.

The substance VFSGTSMRGTEEIKMSWCEK came in with an amyloid nucleation score of 7.686 ± 0.044.

With ISHLRVLEQSLLAEWADNFP, the amyloid nucleation score worked out at 2.08 ± 0.097.

As to VDCTEV, the amyloid nucleation score was found to be 1.26 ± 0.26.

On to VCYMLRNFCDVQHKK, for which the amyloid nucleation score was 0.1 ± 0.63.

With FTVKGTITVYFMVAV, the amyloid nucleation score is 2.17 ± 0.11.

As to SSYRLDAWVKKLFSLSQRKG, the amyloid nucleation score is -0.052 ± 0.32.

Substance NPSFNESFLSGSQKVQILMG displayed an amyloid nucleation score of -0.509 ± 1.1.

VRYKSYMDVS displayed an amyloid nucleation score of 0.87 ± 0.48.

The substance YVKSRHTNYDGRSTLL registered an amyloid nucleation score of 3.12 ± 0.13.

RLINRSDEVYSFLFKRRGSK: the amyloid nucleation score entry is “inactive”.

On to SIFHGWARWKGFG, for which the amyloid nucleation score was -0.258 ± 0.48.

As to FILPRLIFAGQLSCGFARGV, the amyloid nucleation score was -1.17 ± 0.76.

As to ILYYLGWVASALEGHYLDES, the amyloid nucleation score was -0.853 ± 0.55.

With VFSTTSLNV, the amyloid nucleation score was -0.647 ± 0.34.

In turn, MPIEVILCFGG returned an amyloid nucleation score of 1.84 ± 0.34.

As to QFLSYCFWIGNPLVNFINAN, the amyloid nucleation score is 5.874 ± 0.039.

Regarding VDNIVHMWDRNWSPGRYMDR, the amyloid nucleation score is -0.679 ± 0.44.

For the substance EGMTMTHGAGQLMLGGTASV, the amyloid nucleation score stood at 0.904 ± 0.44.

Substance TVGVCGTLPGSASRHVYFRE returned an amyloid nucleation score of 0.286 ± 0.24.

Regarding KDTMK, the amyloid nucleation score was -0.001 ± 0.24.

Regarding INVHSSSG, the amyloid nucleation score came out at 0.344 ± 0.36.

VYFELVPVGTYL came in with an amyloid nucleation score of -0.214 ± 1.

Regarding TYRIGYMNQCTSR, the amyloid nucleation score was -0.215 ± 0.35.

In turn, GDTIVSSGKVSCQRHASFLI registered an amyloid nucleation score of 0.959 ± 0.74.

Consider VRVDGPTLWCTQVRLSGERA, for which the amyloid nucleation score stood at 0.951 ± 0.17.

For the substance PSPVIWPISSPGFQSLCICS, the amyloid nucleation score is -0.38 ± 0.63.

Substance ISCNKIIDIKMWGWVCAIA registered an amyloid nucleation score of 8.729 ± 0.035.

Take CKVHVQVNTESYTGIVMTYY: the amyloid nucleation score is 4.65 ± 0.039.

SNGVAWQCNGNSYRIFCDTS registered an amyloid nucleation score of 7.522 ± 0.069.

As for LERWYYPMS, the amyloid nucleation score worked out at 0.513 ± 0.16.

On to NVGTRWSGDARNMFSSKGGK, for which the amyloid nucleation score came to 0.83 ± 0.31.

The substance SLDGGPAVVEEATFRGSMAF came in with an amyloid nucleation score of -0.567 ± 1.1.

With KLTLLKTL, the amyloid nucleation score result was “inactive”.

Turning to VSCAESVGIYINYWFLNCQE, the amyloid nucleation score came to 8.702 ± 0.03.

With QSESVVRHWGMRWR, the amyloid nucleation score turned out to be 0.729 ± 0.29.

Regarding VKIMMELPLKIDGFLSHVRR, the amyloid nucleation score came to 0.088 ± 0.24.

In turn, PTSFLKSIVGVIWISANLSR showed an amyloid nucleation score of 0.696 ± 0.43.

Substance FFTIVMRRSILFCIFLVIDA gave an amyloid nucleation score of -1.6 ± 0.49.

In turn, WPVCTSIYMVGWWSVHTYHG returned an amyloid nucleation score of 0.705 ± 0.8.

In turn, YCTPCLW came in with an amyloid nucleation score of 0.452 ± 0.66.

MLFSRFRNICG: the amyloid nucleation score is -0.08 ± 1.

In the case of MRKLSKLLTWHPRHA, the amyloid nucleation score was -0.517 ± 0.54.

Regarding IRMLLYCMESELKGASVEAG, the amyloid nucleation score was -0.037 ± 0.5.

The substance WWQGI yielded an amyloid nucleation score of -0.168 ± 1.1.

Regarding RRMYMQPTKLPFYIPGRMCP, the amyloid nucleation score entry was “inactive”.

As to DLVNV, the amyloid nucleation score came to 1.8 ± 0.38.

With FGNSDLNRAMLKRAKQMRSL, the amyloid nucleation score entry is “inactive”.

For the substance SLSLQGLSFMPFCGRSGSVV, the amyloid nucleation score result is “inactive”.

PYQSTCSDRSFYVCVCELHW returned an amyloid nucleation score of 0.241 ± 0.8.

Regarding IWGLIAYLDSFNNFALDRRK, the amyloid nucleation score was -1.03 ± 0.42.

For KAMYFYSRTVRPMMGSEEGS, the amyloid nucleation score is -0.072 ± 0.4.

LVDILLMMYWMWQ registered an amyloid nucleation score of 0.373 ± 0.45.

TLYVVYLDEICYLLFKVSYC: the amyloid nucleation score amounted to 1.2 ± 0.66.

In turn, VFTVLYALSCLSFIFVTV had an amyloid nucleation score of 4.04 ± 0.047.

The substance DFMSSVFCQAVWVHAPRRVR showed an amyloid nucleation score of 0.6 ± 0.74.

As to QYRCGRRLVQRSEVVIVPVC, the amyloid nucleation score entry was “inactive”.

For RSMSRRGFLCLHR, the amyloid nucleation score was 0.948 ± 0.67.

LLGLHELSTS gave an amyloid nucleation score of 0.334 ± 0.46.

In the case of AAPGCFNLKFLS, the amyloid nucleation score was -0.36 ± 0.74.

For the substance GHHLISSDFFDYWGHNMFSG, the amyloid nucleation score entry is “inactive”.

LRDKCAPCKCSRGSPLTSIC registered an amyloid nucleation score of -0.489 ± 0.63.

In turn, WSYGLLWPSVKLIPACPPAS gave an amyloid nucleation score of 0.244 ± 0.42.

FYQFLNSNGKYTGVYGAAPR showed an amyloid nucleation score of -1.01 ± 0.41.

Consider EPTFWPRW, for which the amyloid nucleation score is 0.626 ± 0.35.

On to CHYKMHSLHTARFEFFVMLF, for which the amyloid nucleation score was -0.413 ± 0.41.

In the case of WCCKVTGHFPDTEQYYFPPP, the amyloid nucleation score result was “inactive”.

RSLSA: the amyloid nucleation score was found to be 1.02 ± 0.34.

On to IHAFLALVNCNDTSTKTEVK, for which the amyloid nucleation score is -0.435 ± 0.56.

Turning to VMKFMWKMMLNRERAPYHVL, the amyloid nucleation score is -0.784 ± 0.49.

In the case of DDIAVCWNCFVRLILMMWED, the amyloid nucleation score came out at 1.57 ± 0.42.

LFLTACER: the amyloid nucleation score was determined as 6.721 ± 0.043.

In the case of TFATIRVAFMVMCRFDG, the amyloid nucleation score came out at 3.23 ± 0.084.

Consider CLTTRTSGHNGYQRHDLI, for which the amyloid nucleation score result was “inactive”.

Substance QWVVLVD registered an amyloid nucleation score of -0.016 ± 0.65.

Take VLKPYM: the amyloid nucleation score is -1.3 ± 0.54.

The substance ILVYDEVTSYQDPYFS displayed an amyloid nucleation score of -0.69 ± 0.63.

The substance STARRRCYFGFGLGQSSAAI showed an amyloid nucleation score of -0.891 ± 1.1.

For the substance RFQWSCEVRESPPLNVDLMG, the amyloid nucleation score stood at 1.41 ± 0.44.

On to CPDISGVSRHRAKRQKNWLY, for which the amyloid nucleation score result is “inactive”.

In the case of YYDSYPVT, the amyloid nucleation score is 0.013 ± 0.28.

As for DRIQDQRIGYVVEFSIEKVS, the amyloid nucleation score was -0.742 ± 0.28.

MYWFGTVHQFRKFSENHRMF displayed an amyloid nucleation score of 0.721 ± 0.8.

Turning to DSFIIASRL, the amyloid nucleation score was 1.69 ± 0.1.

In turn, NKTPYIDFVLTR gave an amyloid nucleation score of 0.236 ± 1.1.

For the substance LHWGEFEYCILCARGDIKR, the amyloid nucleation score is -0.755 ± 0.5.

Regarding NSLLVFQNNFGIETNGVNII, the amyloid nucleation score is 0.94 ± 0.74.

Regarding RIEIRQSLEDRLRAVSMAET, the amyloid nucleation score is 1.64 ± 0.3.

Consider VSAKVFSGGKESVMMCWPPL, for which the amyloid nucleation score worked out at 1.58 ± 0.41.

Substance SLFYVTLAPTSWICGTARC gave an amyloid nucleation score of 1.43 ± 0.41.

With IISENAYCLPMIMT, the amyloid nucleation score is -0.437 ± 0.54.

In turn, GNVITDGESMMDCKGTMRSC yielded an amyloid nucleation score of 0.584 ± 0.21.

ATKVISALSIRMRRK showed an amyloid nucleation score of 1.32 ± 0.3.

Take TCAQYKHGTTVDSNLRSTY: the amyloid nucleation score was -0.515 ± 0.48.

The substance IFIRMH registered an amyloid nucleation score of 2.48 ± 0.16.

In turn, RDMGPLVNAPVA gave an amyloid nucleation score of 0.282 ± 0.46.

In the case of TNGCALRSLNWLIVS, the amyloid nucleation score is -0.44 ± 0.31.

On to DSFLLTPDLRDMYEL, for which the amyloid nucleation score was -0.681 ± 0.26.

Take ILWISHLELCENVLVLDWQM: the amyloid nucleation score stood at 2.99 ± 0.048.

In turn, TCKMIAISRRGIDPGKAMHS gave an amyloid nucleation score of -1.16 ± 0.49.

NFTYVSIVMLLSRVWVGFNK: the amyloid nucleation score result was “inactive”.

Regarding AVPMMSWSFIVSYVGRNNSM, the amyloid nucleation score was found to be 1.7 ± 0.19.

Take FDAMSSFLQYLLTHKMWVGD: the amyloid nucleation score turned out to be 0.799 ± 0.43.

DSYMKRLWCRAARDRTESVW showed an amyloid nucleation score of 0.159 ± 0.46.

Substance FVEMYGLWPSFGVKRKVLKV gave an amyloid nucleation score of -0.904 ± 0.53.

TSRDSRAL yielded an amyloid nucleation score of -0.742 ± 1.1.

Substance LELKDNMAFDRSLFLKRHGG had an amyloid nucleation score of -0.243 ± 0.28.

ADFTWVKSHVCHMEWSR displayed an amyloid nucleation score of 0.551 ± 0.42.

Regarding QKFVLSRPDLDRFYCSMDCM, the amyloid nucleation score is -0.185 ± 0.63.

VVYASRLC had an amyloid nucleation score of 0.681 ± 0.35.

NRADGDKFSSSPSPTWKYME displayed an amyloid nucleation score of -0.081 ± 1.1.

Turning to WRVFSYYHISDRF, the amyloid nucleation score was -0.19 ± 1.1.

Turning to FSYPGWFGFRS, the amyloid nucleation score result was “inactive”.

KGIAVSVVPYSPVNTGDSAV came in with an amyloid nucleation score of 0.632 ± 0.48.

Consider KIFTSCKELTVVGLVASYMN, for which the amyloid nucleation score was found to be 0.782 ± 0.51.

For RLRFPSPFRTVNWSFIRFAR, the amyloid nucleation score was 5.03 ± 0.069.

In the case of MYIRYPFATPYWSFLLGKVT, the amyloid nucleation score was -0.117 ± 0.35.

For the substance NFNHVSEI, the amyloid nucleation score result is “inactive”.

As to NMIYYMFEYAWPCIVER, the amyloid nucleation score stood at 7.37 ± 0.08.

With VSNAGSSTKDILGIHRS, the amyloid nucleation score was -0.06 ± 1.1.

On to SSVVISRVPTARICSEEKGP, for which the amyloid nucleation score entry is “inactive”.

Substance NSGYIGLGLSF gave an amyloid nucleation score of -0.224 ± 0.65.

Substance TFDPMVGLGISLSALCMGRL had an amyloid nucleation score of -0.104 ± 0.39.

Turning to SRKFSFAYFTRFFYVLVLIV, the amyloid nucleation score result is “inactive”.

The substance WASLGYTCFGKVRRWAPGTH showed an amyloid nucleation score of 0.371 ± 0.28.

In turn, GDWSYGMGFNMVAMRNWEYL had an amyloid nucleation score of -0.512 ± 0.63.

Turning to WAWVYGCDGYLIGSSRLANG, the amyloid nucleation score is 0.368 ± 0.25.

Regarding IMPLSKLCMWETIRSDGRRG, the amyloid nucleation score turned out to be 1.07 ± 0.29.

Regarding SITAIYESLNRRRNLKFKYC, the amyloid nucleation score entry was “inactive”.

Regarding AYINRHVEWRCTVRTVALSS, the amyloid nucleation score is 0.664 ± 0.38.

RQMPVGGCVFMTKVCKT returned an amyloid nucleation score of 0.232 ± 0.64.

Values taken from the supplement of paper PMC12042874.
